Measured values reported in patent publication US20130123481A1, “MODIFIED NUCLEOSIDES, NUCLEOTIDES, AND NUCLEIC ACIDS, AND USES THEREOF” (MODERNA THERAPEUTICS, priority 2011, published 2013).

Experiments:
[1] = tested on: peripheral blood mononuclear cells (PBMC); assay: In Vitro PBMC Studies: Percent modification - G-CSF expression; assay type: cell-based, human; settings: for G-CSF Expression: 480 ng mRNA
Experimental: 480 ng of G-CSF mRNA modified with 5-methylcytosine (5mC) and pseudouridine (pseudoU) or unmodified G-CSF mRNA was transfected with 0.4 uL of Lipofectamine 2000 into peripheral blood mononuclear cells (PBMC) from three normal blood donors (D1, D2, and D3). […] The supernatant was harvested and run by ELISA 22 hours after transfection to determine the protein expression. The expression of IFN-alpha and TNF-alpha may be a secondary effect from the transfection of the G-CSF mRNA.

human PBMC = assay: Cytokine Study: PBMC - G-CSF production (G-CSF ELISA); assay type: cell-based; settings: mRNA with Lipofectamine 2000
Experimental: (§1) The plates were then incubated at 37° C.
(§2) Each condition was done in duplicate.
In the G-CSF ELISA, background signal from the Lipofectamine 2000 (LF2000) untreated condition was subtracted at each time point.

[2] = tested on: human PBMC, tumor necrosis factor alpha (TNF-alpha)
Experimental: 50 mL of human blood from two donors was received from Research Blood Components (lots KP30928 and KP30931) in sodium heparin tubes. For each donor, the blood was pooled and diluted to 70 mL with DPBS (SAFC Bioscience 59331C, lot 071M8408) and split evenly between two 50 mL conical tubes. 10 mL of Ficoll Paque (GE Healthcare 17-5442-03, lot 10074400) was gently dispensed below the blood layer. The tubes were centrifuged at 2000 rpm for 30 minutes with low acceleration and braking. The tubes were removed and the buffy coat PBMC layers were gently transferred to a fresh 50 mL conical and washed with DPBS. The tubes were centrifuged at 1450 rpm for 10 minutes.
The supernatant was aspirated and the PBMC pellets were resuspended and washed in 50 mL of DPBS. The tubes were centrifuged at 1250 rpm for 10 minutes. This wash step was repeated, and the PBMC pellets were resuspended in 19 mL of Optimem I (Gibco 11058, lot 1072088) and counted. The cell suspensions were adjusted to a concentration of 3.0×10̂6 cells/mL live cells.
These cells were then plated on five 96 well tissue culture treated round bottom plates (Costar 3799) per donor at 50 uL per well. Within 30 minutes, transfection mixtures were added to each well at a volume of 50 uL per well. After 4 hours post transfection, the media was supplemented with 10 uL of Fetal Bovine Serum (Gibco 10082, lot 1012368)
The plate containing the material to be transfected was incubated for 20 minutes. The transfection mixtures were then transferred to each of the human PBMC plates at 50 uL per well. The plates were then incubated at 37° C. At 2, 4, 8, 20, and 44 hours each plate was removed from the incubator, and the supernatants were frozen.
The ability of unmodified and modified mRNA to produce the encoded protein was assessed (G-CSF production) over time as was the ability of the mRNA to trigger innate immune recognition as measured by interferon-alpha production.

[3] = tested on: human PBMC, interferon-alpha (IFN-alpha); assay: Cytokine Study: PBMC - IFN-alpha production (ELISA)
Experimental: as §1, §2

mice = assay: Intravenous Administration - neutrophil count; assay type: in vivo, mouse; settings: for Neutrophil: I.V. 50 ug RNA at days 0, 2 and 4, 10% lipoplex
Experimental: Neutrophils were measured at days 1, 5 and 8. Controls included non-specific mammalian RNA or the formulation buffer alone (F.Buffer). The mice were bled at days 1, 5 and 8 to determine the effect of mRNA-encoded human G-CSF to increase neutrophil count. The dosing regimen is shown in Table 21 as are the resulting neutrophil counts (thousands/uL; K/uL).
In Table 21, an asterisk (*) indicates statistical significance at p<0.001 compared to buffer.

[4] = Stability of Modified RNA - storage, gel electrophoresis; assay type: physicochemical
Experimental: Stability experiments were conducted to obtain a better understanding of storage conditions to retain the integrity of modified RNA. […] After the mRNA had been stored for 0 hours, 2 hours, 6 hours, 24 hours, 48 hours, 5 days and 14 days, the mRNA was analyzed by gel electrophoresis using a Bio-Rad EXPERION™ system. The modified, unmodified and lipoplexed G-CSF mRNA was also stored in RNASTABLE® (Biomatrica, Inc. San Diego, Calif.) at 40° C. or water at −80° C. or 40° C. for 35 days before being analyzed by gel electrophoresis.

[5] = tested on: Human primary foreskin fibroblasts (BJ fibroblasts); assay: Cell Viability in BJ Fibroblasts (CELL TITER GLO, repeated transfection); assay type: cell-based; settings: normalized to untreated = 100%
Experimental: Control samples of Lipofectamine 2000 (LF2000) and unmodified G-CSF mRNA were also transfected. The modified mRNA or control samples were transfected daily for 4 days. The viability of the cells after transfection was evaluated 6 hours and 24 hours after the first transfection (Ti, 6 hours or T1, 24 hours), and 24 hours after the second (T2, 24 hours) and fourth transfection (T4, 24 hours).
To determine cell viability, the culture medium was completely removed and the cells were washed once with 600 ul of sterile PBS without Ca2+/Mg2+ (Gibco/Life Technologies, Manassas, Va.) in order to rinse-off loosely attached cells. PBS was removed and discarded. The cleaned fibroblasts in each well were treated with 220 ul of a diluted CELL TITER GLO® (Promega, catalog #G7570) stock solution (the CELL TITER GLO® stock solution was further diluted 1:1 with an equal amount of sterile PBS). A sterile pipet tip was used to scratch the cells off the plate and accelerate the lysis process.
For two time intervals, T1, 24 hours and T2, 24 hours, an alternative protocol was applied. Cells were washed with PBS, as described above, and subsequently trypsinized with Trypsin/EDTA solution (Gibco/Life Technologies, Manassas, Va.). Cells were detached and collected in 500 ul of medium containing trypsin inhibitor. Cells were harvested by centrifugation at 1200 rcf for 5 minutes. The cell pellet was resuspended in 500 ul PBS. This cell suspension was kept on ice, and 100 ul of this was combined with 100 ul of undiluted Cell Titer Glo solution.
All of the CELL TITER GLO® lysates were then incubated at room temperature for 20 minutes. 20 ul of the lysates were transferred to a white opaque polystyrene 96-well plate (Corning, Manassas, Va.) and combined with 100 ul diluted CELL TITER GLO® solution. The plate reader used was from BioTek Synergy H1 (BioTek, Winooski, Vt.) and the absolute values were normalized to signal of the untreated BJ Fibroblasts to 100% cell vitality.

[6] = tested on: peripheral blood mononuclear cells (PBMC); assay: Modified RNA transfected in PBMC (0.1-100% modification) - G-CSF expression; assay type: cell-based, human
Experimental: 500 ng of G-CSF mRNA modified with 5-methylcytosine (5mC) and pseudouridine (pseudoU) or unmodified G-CSF mRNA was transfected with 0.4 uL of Lipofectamine 2000 into peripheral blood mononuclear cells (PBMC) from three normal blood donors (D1, D2, and D3). […] The supernatant was harvested 6 hours and 18 hours after transfection and run by ELISA to determine the protein expression. The expression of G-CSF, IFN-alpha, and TNF-alpha for Donor 1 is shown in Table 10, Donor 2 is shown in Table 11 and Donor 3 is shown in Table 12.

[7] = tested on: peripheral blood mononuclear cells (PBMC), TNF-alpha; assay: In Vitro PBMC Studies: Percent modification - TNF-alpha expression; assay type: cell-based, human
Experimental: (§3) The supernatant was harvested and run by ELISA 22 hours after transfection to determine the protein expression.

[8] = tested on: peripheral blood mononuclear cells (PBMC), IFN-alpha; assay: In Vitro PBMC Studies: Percent modification - IFN-alpha expression; assay type: cell-based, human
Experimental: as §3

[9] = PBMC donor D1, 0.4 uL Lipofectamine 2000, ELISA 22 hours after transfection
[10] = PBMC donor D2, 22 hours after transfection
[11] = PBMC donor D3, 22 hours after transfection

Molecule: Luciferase: control mRNA encoding luciferase (SEQ ID NO: 3), Cap 1, fully modified with 5-methylcytosine and pseudouridine [reference compound]
- G-CSF Expression [1, 9]: 90.2 pg/mL
- G-CSF Expression [1, 10]: 0.0 pg/mL
- G-CSF Expression [1, 11]: 22.1 pg/mL
- G-CSF: 3 Donor Average (human PBMC): 18 pg/mL

B1: G-CSF 5-methyl cytosine/pseudouridine: mRNA encoding human G-CSF (SEQ ID NO: 1), Cap 1, 100% substitution with 5-methyl cytidine and pseudouridine (nucleic acid, listed as Homo Sapiens)
chain: GGGAAAUAAGAGAGAAAAGAAGAGUAAGAAGAAAUAUAAGAGCCACCAUGGCCGGUCCCGCGACCCAAAGCCCCAUGAAACUUAUGGCCCUGCAGUUGCUGCUUUGGCACUCGGCCCUCUGGACAGUCCAAGAAGCGACUCCUCUCGGACCUGCCUCAUCGUUGCCGCAGUCAUUCCUUUUGAAGUGUCUGGAGCAGGUGCGAAAGAUUCAGGGCGAUGGAGCCGCACUCCAAGAGAAGCUCUGCGCGACAUACAAACUUUGCCAUCCCGAGGAGCUCGUACUGCUCGGGCACAGCUUGGGGAUUCCCUGGGCUCCUCUCUCGUCCUGUCCGUCGCAGGCUUUGCAGUUGGCAGGGUGCCUUUCCCAGCUCCACUCCGGUUUGUUCUUGUAUCAGGGACUGCUGCAAGCCCUUGAGGGAAUCUCGCCAGAAUUGGGCCCGACGCUGGACACGUUGCAGCUCGACGUGGCGGAUUUCGCAACAACCAUCUGGCAGCAGAUGGAGGAACUGGGGAUGGCACCCGCGCUGCAGCCCACGCAGGGGGCAAUGCCGGCCUUUGCGUCCGCGUUUCAGCGCAGGGCGGGUGGAGUCCUCGUAGCGAGCCACCUUCAAUCAUUUUUGGAAGUCUCGUACCGGGUGCUGAGACAUCUUGCGCAGCCGUGAAGCGCUGCCUUCUGCGGGGCUUGCCUUCUGGCCAUGCCCUUCUUCUCUCCCUUGCACCUGUACCUCUUGGUCUUUGAAUAAAGCCUGAGUAGGAAG
modifications: Cap1; 5-methylcytidine and pseudouridine
- TNF-alpha production (in words) [2]: low but detectable levels
- TNF-alpha: 3 Donor Average [2]: 31 pg/mL
- G-CSF/TNF-alpha (ratio), PC Ratio ([2]; human PBMC, 3 donor averages): 153
- IFN-alpha production (in words) [3]: low but detectable levels
- IFN-alpha: 3 Donor Average [3]: 141 pg/mL
- G-CSF/IFN-alpha (ratio), PC Ratio ([3]; human PBMC, 3 donor averages): 34
- G-CSF: 3 Donor Average (human PBMC): 4742 pg/mL

B2: G-CSF modified mRNA: control modified G-CSF mRNA (SEQ ID NO: 1, Cap 1), fully modified 5-methylcytosine and pseudouridine, 8.4 nM (nucleic acid, listed as Homo Sapiens)
chain: B1 chain
modifications: Cap1; 5-methylcytosine and pseudouridine
- increase in neutrophil count above control at day 5 (mice; intravenous administration): four to five fold increase

B3: unmodified G-CSF: Unmodified G-CSF mRNA (SEQ ID NO: 1, Cap1), storage stability (nucleic acid, listed as Homo Sapiens)
chain: B1 chain
modifications: Cap1
- stable out to ([4]; stored at 25° C.): 48 h
- stable out to ([4]; stored at 37° C.): 6 h
- stable out to ([4]; stored at 50° C.): 2 h
- Percent Viability T1, 6 hours ([5]; T1, 6 hours): 101%
- Percent Viability T1, 24 hours ([5]; T1, 24 hours): 72%
- Percent Viability T2, 24 hours ([5]; T2, 24 hours): 74%
- Percent Viability T4, 24 hours ([5]; T4, 24 hours): 42%

B4: G-CSF (no modification): human G-CSF mRNA having no modifications, formulated in 10% lipoplex (RNAIMAX) (nucleic acid, listed as Homo Sapiens)
chain: B1 chain
modifications: Cap1; polyA tail; lipoplex
- Neutrophil (mice; Day 1): 1.88 K/uL
- Neutrophil (mice; Day 5): 1.95 K/uL
- Neutrophil (mice; Day 8): 2.09 K/uL

B5: 100% modification: G-CSF mRNA (SEQ ID NO: 1, Cap1) completely modified with 5mC and pseudoU (nucleic acid, listed as Homo Sapiens)
chain: B1 chain
modifications: Cap1; 5-methylcytidine and pseudouridine
- G-CSF ([6]; PBMC Donor 1, 500 ng mRNA, 6 hours after transfection): 1815 pg/mL
- G-CSF ([6]; PBMC Donor 1, 18 hours after transfection): 2224 pg/mL
- G-CSF ([6]; PBMC Donor 2, 6 hours after transfection): 2184 pg/mL
- G-CSF ([6]; PBMC Donor 2, 18 hours after transfection): 2432 pg/mL
- G-CSF ([6]; PBMC Donor 3, 6 hours after transfection): 6086 pg/mL
- G-CSF ([6]; PBMC Donor 3, 18 hours after transfection): 7549 pg/mL
- Average TNF-a [7]: 47 pg/mL
- ratio of protein/cytokine production relative to natural G-CSF mRNA, TNF-alpha ([7]; PBMC, Table 9): 27 fold
- G-CSF/TNF-alpha (PC ratio) ([7]; calculated from Tables 7 and 8): 52
- Average IFN-a [8]: 153 pg/mL
- ratio of protein/cytokine production relative to natural G-CSF mRNA, IFN-alpha ([8]; PBMC, Table 9): 100 fold
- G-CSF/IFN-alpha (PC ratio) ([8]; calculated from Tables 7 and 8): 16
- G-CSF Expression [1, 9]: 1968.9 pg/mL
- G-CSF Expression [1, 10]: 2595.6 pg/mL
- G-CSF Expression [1, 11]: 2835.7 pg/mL
- Average G-CSF ([1]; average of PBMC donors D1-D3): 2466 pg/mL
